Measurements as given in paper PMC4958246.

Biological target: polymerized rabbit skeletal muscle actin (F-actin) (rabbit) (UniProt P68135)
Assay: co-sedimentation; proteins incubated with polymerized rabbit skeletal actin (40 µl of a 1-mg/ml stock; 50 mM KCl, 2 mM MgCl2, 1 mM ATP); WD0830 at 40 ng/ml final; centrifuged at 14,000 x g 1 h 24°C, then 150,000 x g 1.5 h 24°C; supernatants and pellets on silver-stained SDS-PAGE, densitometry with ImageJ

Substance: Wolbachia pipientis wMel protein WD0830 (Wolbachia actin-localizing effector 1) (natural protein)
- percent of the protein in the pellet with actin: 24%
